Experiment [1] addresses GMPCPP-stabilized microtubules (bovine brain tubulin, TAMRA-labeled) (bovine) (UniProt Q6B856). Put plainly: single-molecule TIRF microscopy.
For experiment [2] the target is unchanged. The experiment is described as follows: single-molecule TIRF microscopy. This is another data set of the same source.

Like-named read-outs stand apart in the source and are kept apart here.

Chain of His-EGFP-L-TOG2-S (minimal construct of CLASP2α: short linker region, TOG2 domain and serine-arginine-rich region) (domain or fragment) (O75122 whole entry, the tested form may be a part): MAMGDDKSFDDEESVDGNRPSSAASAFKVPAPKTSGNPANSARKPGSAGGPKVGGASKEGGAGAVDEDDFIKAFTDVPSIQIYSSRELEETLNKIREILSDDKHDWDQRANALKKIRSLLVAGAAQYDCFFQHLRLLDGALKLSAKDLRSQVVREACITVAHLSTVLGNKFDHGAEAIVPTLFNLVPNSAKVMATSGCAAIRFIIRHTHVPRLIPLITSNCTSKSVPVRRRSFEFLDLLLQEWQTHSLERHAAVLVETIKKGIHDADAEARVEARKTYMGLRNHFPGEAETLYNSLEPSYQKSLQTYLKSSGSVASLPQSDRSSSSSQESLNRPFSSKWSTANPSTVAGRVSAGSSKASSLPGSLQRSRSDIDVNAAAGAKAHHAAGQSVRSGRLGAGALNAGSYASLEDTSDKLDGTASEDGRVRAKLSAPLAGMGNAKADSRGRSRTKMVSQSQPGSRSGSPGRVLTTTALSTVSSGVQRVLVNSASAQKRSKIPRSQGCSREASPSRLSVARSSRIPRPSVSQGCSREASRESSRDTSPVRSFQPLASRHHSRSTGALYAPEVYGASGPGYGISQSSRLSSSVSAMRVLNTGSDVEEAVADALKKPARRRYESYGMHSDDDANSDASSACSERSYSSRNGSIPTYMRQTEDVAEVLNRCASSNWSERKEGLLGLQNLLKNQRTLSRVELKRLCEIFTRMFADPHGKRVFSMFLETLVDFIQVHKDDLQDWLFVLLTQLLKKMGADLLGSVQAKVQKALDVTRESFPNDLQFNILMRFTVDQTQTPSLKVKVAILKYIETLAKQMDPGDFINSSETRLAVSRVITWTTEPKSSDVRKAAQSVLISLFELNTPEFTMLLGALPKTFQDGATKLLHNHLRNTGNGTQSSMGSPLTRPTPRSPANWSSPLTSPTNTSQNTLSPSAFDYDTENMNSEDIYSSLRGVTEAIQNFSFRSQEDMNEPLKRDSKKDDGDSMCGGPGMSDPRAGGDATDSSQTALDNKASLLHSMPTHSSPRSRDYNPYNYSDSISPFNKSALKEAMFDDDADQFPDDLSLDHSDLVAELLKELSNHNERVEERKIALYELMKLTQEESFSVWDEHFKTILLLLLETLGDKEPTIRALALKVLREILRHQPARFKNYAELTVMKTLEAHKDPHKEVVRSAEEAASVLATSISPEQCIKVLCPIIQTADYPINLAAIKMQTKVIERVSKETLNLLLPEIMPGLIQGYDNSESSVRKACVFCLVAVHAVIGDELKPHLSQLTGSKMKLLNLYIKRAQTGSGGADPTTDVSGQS

As for “His-EGFP-L-TOG2-S (minimal construct of CLASP2α: short linker region, TOG2 domain and serine-arginine-rich region) (domain or fragment)”, the results for the mean dwell time on microtubule ends in experiment [1] and in experiment [2] were 3.8 s and 0.53 s, respectively.

Source of the values: PMC10195879.
